From patent publication US7413903B2, “Methods of regulating differentiation in stem cells” (ES Cell International PTE Ltd., priority 2002, dated 2008)

System: hES cells
Assay: GCTM-2 quantification (alkaline phosphatase-coupled secondary antibody, OD 405 nm)
Format: cell-based, human
Description: hES-3 cells plated with MEF, were fixed in ethanol and immunostained with GCTM-2 and then with an alkaline phosphatase-coupled secondary antibody (Dako). The activity of alkaline phosphatase was detected by adding a solution of 4-nitrophenyl phosphate (Roche, Mannheim, Germany), followed by reading the optical density (OD) at 405 nm. In order to validate the technique as a relevant indicator of the proportion of GCTM-2 positive cells, standard curves were done with the teratocarcinoma cell line GCT27C4, known to express GCTM-2.
Cells were fixed in 100% ethanol and immunostained with GCTM-2 followed by alkaline phosphatase-coupled secondary antibodies (Dako). Alkaline phosphatase activity was detected by adding a solution of 4-nitrophenyl phosphate (Roche), and the concentration of the reaction product was determined by reading the optical density (OD) at 405 nm. In order to validate the technique as an accurate indicator of the proportion of GCTM-2 positive cells, standard curves were carried out with the embryonal carcinoma cell line GCT27C4, known to express GCTM-2 ^20.

B1: PDGF-BB: Human platelet-derived growth factor isoform BB (protein, UniProt P01127 82-190, looked up)
Platelet-derived growth …: SLGSLTIAEPAMIAECKTRTEVFEISRRLIDRTNANFLVWPPCVEVQRCSGCCNNRNVQCRPTQVQLRPVQVRKIEIVRKKPIFKKATVTLEDHLACKCETVAAARPVT
GCTM2 levels, PDGF isoform added with S1P (Example 1, isoform added with S1P): 182.0±26.0 % of control
GCTM2 expression, PDGF isoform with S1P (Example 2, 2 weeks, isoform 20 ng/ml together with S1P): 294.3±77.3 % of control
